In publication PMC4140785:

What was measured:
[1] = molecular target: full-length HIV-1 gp120 from the clade B YU2 strain (HIV-1 (clade B, strain YU2)) (UniProt P35961); assay: SPR
[2] = molecular target: CD4-mimetic miniprotein M48U1; assay: SPR

| Substance | Kd [1] [nM] | koff [1] [s⁻¹] | kon [1] [M⁻¹ s⁻¹] | Kd [2] [nM] |
| --- | --- | --- | --- | --- |
| CD4-mimetic miniprotein M48U1 (designed binder) | 0.0154 | – | – | – |
| CD4-mimetic miniprotein M48U7 (designed binder) | 0.18 | 0.000446 | 2.42e+06 | – |
| full-length HIV-1 gp120 from the clade B YU2 strain (from UniProt P35961 32-498) (natural protein) | – | – | – | 0.014 |
